Measurements as given in US20220332804A1 (CSL INNOVATION, published 2022).
Numbering of substitutions follows the chain as printed.

Tests used:
Test in all cases: SPR, mAb captured, C2 mutant analyte;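 note: Anti-C2 mAbs captured on goat anti-human IgG Biacore CM5 chips, alanine or serine C2 surface mutants flowed over at 37 °C, double-referenced sensorgrams fitted to a 1:1 binding model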
human C2 R688A = target: T1, human C2 R688A (human, UniProt P06681 21-752)
T1 sequence: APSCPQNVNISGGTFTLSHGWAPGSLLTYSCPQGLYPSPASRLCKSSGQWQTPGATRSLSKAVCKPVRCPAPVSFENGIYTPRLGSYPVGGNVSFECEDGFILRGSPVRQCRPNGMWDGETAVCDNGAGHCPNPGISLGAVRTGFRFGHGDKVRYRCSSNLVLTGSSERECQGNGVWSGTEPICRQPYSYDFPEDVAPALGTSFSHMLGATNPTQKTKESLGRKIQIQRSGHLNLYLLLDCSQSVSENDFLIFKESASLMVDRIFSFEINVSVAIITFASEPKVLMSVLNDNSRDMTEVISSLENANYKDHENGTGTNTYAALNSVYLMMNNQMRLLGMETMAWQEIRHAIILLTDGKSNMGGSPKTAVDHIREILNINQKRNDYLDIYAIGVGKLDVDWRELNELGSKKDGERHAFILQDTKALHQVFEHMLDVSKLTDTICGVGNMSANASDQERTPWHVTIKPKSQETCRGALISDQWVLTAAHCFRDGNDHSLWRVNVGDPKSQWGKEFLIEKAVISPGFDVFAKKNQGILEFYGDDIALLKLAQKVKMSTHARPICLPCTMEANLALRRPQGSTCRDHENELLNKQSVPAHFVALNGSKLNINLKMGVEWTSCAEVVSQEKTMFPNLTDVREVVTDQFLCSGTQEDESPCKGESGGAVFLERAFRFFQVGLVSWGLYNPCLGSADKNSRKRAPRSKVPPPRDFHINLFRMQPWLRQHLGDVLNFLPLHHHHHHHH

human C2 K244A = target: T2, human C2 K244A (human, UniProt P06681 21-752)
T2 sequence: T1 sequence with K224A, A668R

human C2 D282A = target: T3, human C2 D282A (human, UniProt P06681 21-752)
T3 sequence: T1 sequence with D262A, A668R

human C2 N380A = target: T4, human C2 N380A (human, UniProt P06681 21-752)
T4 sequence: T1 sequence with N360A, A668R

B1: RF16-214 (antibody, V domains shown)
VH: EVQLLESGGGLVQPGGSLRLSCAASGFTFSWYQMMWVRQAPGKGLEWVSRIYPSGGGTAYADSVKGRFTISRDNSKNTLYLQMNSLRAEDTAVYYCARDAGYGDNWGQGTLVTVSS
VL: QSALTQPPSVSVSPGQTASITCSGDKLGEKYASWYQQKAGQSPVMVIYQDRKRPSGIPERFSGSNSGNTATLTISGTQAMDEADYYCQAWDTRAVVFGGGTKLTVLG
Kd (human C2 R688A): 96.2 nM
Kd (human C2 K244A): 97.1 nM
binding result (human C2 D282A): no binding
Kd (human C2 N380A): 58.8 nM
